Laboratory results: article PMC8196545 (Cell reports, 2021)

B1: c11475 (antibody, V domains shown)
VH: EARLVESGGGRVQPGGSLRLSCEASGFRFSSYTFNWVRQSPGKGLEWLAKISASPFGRSQVNYAHSVEGRFIISRDNDGNSLRLQMNDLRGGDSGVYYCARAPWQERNLDYNYAMDVWGQGTTVIVSS
VL: ELVLTQSPGTLSLSPGERATVSCRASQSLRRDSLAWYQQKPGHSPRLLIFAASNRVPGIPYRFSGTGSGTQFTLTIEKMEPEDFAVYYCQSYGSSPLYTFGQGTKLDIN
B2: c11673 (antibody, V domains shown)
VH: EVKLVESGGTQVQPGGSLRISCVGSGIRFSSYSFNWVRQAPGKGPEWLAYISASPFGRSKVTYAQSVEGRFTVSRDNDANSLYLQMTGLTRDDTAVYYCARAPYYEGNFHYNYAMDVWGLGTPVIVSS
VL: GVVLTQSPGTLSVSPGERATVSCRASQSLSRDSLVWYQQKPGQPPRLLIFGTSNRVPGIPDRFSGGGSGTQFTLTISRLEPEDFAVYYCQNYGLSPLYSFGQGTKLEIK
B3: c10919 (antibody, V domains shown)
VH: EVKLVESGGTQVQPGGSLRISCVGSGFRFSSYSFNWVRQAPGKGPEWLAYISASPFGRSKVTYAQSVEGRFTVSRDNDANSLYLQMTGLTRDDTAVYYCARAPYYEGNFHYNYAMDVWGLGTPVIVSS
VL: GVVLTQSPGTLSVSPGERATISCRASQSLSRDSLVWYQQKPGQPPRLLIYGTSNRVPGIPDRFSGGGSGTQFTLTISRLEPEDFAVYYCQNYGLSPLFSFGQGTKLEIK
B4: c11452 (antibody, V domains shown)
VH: EVKLVESGGTQVQPGGSLRISCVGSGFRFSSYSFNWVRQAPGKGPEWLTYISASPFGRSKVTYAPSVEGRFIVSRDNDANSLYLQMTGLTRDDTAVYHCARAPYYEGNFQYNYAMDVWGLGTTVIVSS
VL: GVVLTQSPGTLSLSPGERATVSCRASQSLSRDSLVWYQQKPGQPPRLLIYGTSNRVPGIPDRFSGGGSGTQFTLTISRLEPEDFAVYYCQNYGLSPLYSFGQGTKLEIK
B5: c27071 (antibody, V domains shown)
VH: QFRLEQSGAEVKRPGSSVKVSCKATGGTFHTFVLSWVRQAPGQALEWMGGIIPIFGTAKYAQRFQGRVTFTTDEATNTAYMDLRRLTSDDTAVYFCARSATSDTALVDYGDYEADTFYHNHMDVWGGGTSVTVSS
VL: QSVLTQPPSASATPGQRVTISCSGSSSNIGSNSVTWYHQLPGTAPKVLIYSNDRRPSGVPDRFSGSKSGTSASLAISGLQSDDEGDFYCAAWDDSLKSPVFGGGTKLTVL
B6: c10840 (antibody, V domains shown)
V domain 1: EVRLDQSGAEMRKPGTSVRLSCTVSGHTTSDFFIHWVKQAPQRGPQWMGLINVEDENVIYAEVFQGRISIVADTSKTTVFLDLSHLTFEDTALYFCTTHTLEKETGDYVAAFDSWGQGTFLSVSS
V domain 2: QSVLTQPPSVSAVPGQKVIISCSGRTSNIGTNFVSWYQQFPGAAPKLLIYDTFHRPSGISDRFSASKSDTSATLAITALQPGDEAEYYCGAWDSGLNPAVFVFGSGTRVFVL
B7: c11450 (antibody, V domains shown)
V domain 1: EVQLAQSGAEMRKPGTTVRISCVISGHTTTDYYVHWVQQAPGKGPQWMGLINFEDANTVYSQSFRGRVSISADISEKTVFLDLTGLTSGDTALYFCTTHTLEKDSGDYVSAFDSWGQGTLLSVSP
V domain 2: QSMLTQPPSISAVPGQKVIISCSGRTSNIGTNFVSWYQQVPGAAPRLLMYDNSNRPSGISDRFSGAKSGSTATLAITALQTEDEADYYCGSWDSGLNPPIFVFGPGTRVFVI
B8: c31461 (antibody, V domains shown)
VH: QLQLQESGPGLVKPSETLSLTCSASGVSIGGGSSFLGWIRQPPGMGLEWIVTHYSAAKIYYNPSLQSRVITSLDTSKTQFSLKLTSMTATDTAIYYCARGNWQLQAFDSWGQGILVTVSS
VL: DIQMTQSPSTLSASVGDRVTITCRASQDIRSWLAWYQQKPGEAPKLLIYTASRLHSGVPSRFSGSGSGTEFTLTISSLQPDDFATYYCQQHNSYSGTFGQGTKVEIK
B9: c5539 (antibody, V domains shown)
VH: QVRLEQWGPGLLKPSETLSLTCAVYGESFDDYSWTWIRQTPSLGLQWIGEIRPFGEIVHKSSLSGRLSFSRDASMRRVYLKLTSVTAADAGVYFCARGPVIYQNPHFYYRGYNVWGQGTTVTVSA
VL: DVAVTQSPRSLVVTPGETATIFCRSSQSLRHGNGMHYLDWYLQKPGQSPQLLIYLTSNRASGVPDRFSGSGSGTEFTLKISRVEADDVGIYYCMQAIQDPRVFGQGTRLELK
B10: c11395 (antibody, V domains shown)
VH: DVQLLQSNPQVTKPGTTMKISCKTSGFTFSDHFIHWVRLTPARGLEWLGLLDPQGGESVTVFSETFKDRVTMTADTSKNIAYMELHTLTSEDTALYFCATTTLENDDGDYVAAFDFWGQGTPVIVSS
VL: QSVLTQTPSVSAAPGQKVTISCSGSTSNIGSNFVSWYQHSPGAAPRLIIYNNAERPSGIPARFSGSKSGSSATLAITGLQTEDEAEYFCAAWNNGLKSAHYVFGTGTRLSVL
B11: c21079 (antibody, V domains shown)
VH: EVQLVQSGGGEARPGDSLRISCAVSGFQFNQYAMSWVRQRPGKGLEWVSSADWTGNSVHYAGSLGDRFSVSRALYGHSLELQMNSLRPEDTAVYYCARQDFYASESRAFSEIHGNFFDLWGQGTRVTVSP
VL: QSALTQPPSASGSPGQSVIISCTGASSDISGHEYVSWYQQHAAKVPKLIIYEVTKRPSGVPDRFIGSRSGNTASLTISGLQADDEADYYCASYRHNDRSYVFGTGTTVAVL
B12: c21122 (antibody, V domains shown)
VH: QVQLAQSAAEVKRPGASVKVSCKVSGNTLMEVSIQWVRQTPGKGLEWLGGFAPEKDDWVYAQKFLGRVTMTEDTSTDIAYMHMNSLTSDDTATYYCVGGWQAWGQGTLVTVSS
VL: DIQMTQSPSSLSASVGDRITITCRASQDIINYLAWYQQQAGRAPKSLIYAASSLQSGVPSKFSGSGSGTNFSLTISSLQPEDFATYYCQQYYSYPLTFGGGTKVDLR
B13: c5300 (antibody, V domains shown)
VH: QMQLQESGPGLVKPSETLTVTCYVSGGSISRYHWAWIRQSAGKPLEWIGSVYGNSGSVRSSPSLHTRVALVIGSTYFSLKLKSATAADTAVYYCARELARDFNYDFGHGGSSFGIDVWGRGIMVTVSS
VL: NFILTQPHSVSGSPGKTVIISCTRSSGNIGDNSVQWYQHRPGTSPTTVISEKNRRPSGIPGRFSASIDTSSNSASLTISDLRSEDEAVYYCQSCDGGNRLIFGGGTTLTVL
B14: c18622 (antibody, V domains shown)
VH: EVRLLESGGGLVQPGQSLRLSCAASGFTFRNYALAWVRQTPRKGLEWVSLLSSSGDGAFYADSLKGRFTISRDNSKNTLYLEGHSLRADDSAIYYCVKVRWLQYDWHFDLWGRGALVTVSS
VL: AIRMTQSPSTLSASVGDRVTIACRASQDIGSSLAWYQQRPGQAPRLLIYKASVLEGGVPSRFSGSGSGTEFRLIISSLQADDYATYYCQQYSGYSCTFGQGTKVDIT
B15: c13501 (antibody, V domains shown)
VH: QVQLQQWGAGLLKPSETLSLTCAIYGGSFDDNSWTWIRQSPGGGLEWIGEIKYSGTSDYNLSLKSRITMSIDMSKKQFSLKLTSVTAADTGLYFCARARLSKFNSAWSWEHHYYMDVWATGTAVTVSS
VL: DIQMTQSPSSLSASVGDRVTVTCRASQNIGNYLNWYQQKPGKAPKLLIFATSTLHGGVPSRFSGSGSGTDFTLSITNVQSEDVAIYFCQQSYSVPYSFGRGTSLDMR
B16: c29260 (antibody, V domains shown)
VH: QVRLQESGPGLVRPSETLSLTCLVSGDSITSNYWSWIRQPPGKTLEWIGFMYNSGDANYNPSLQSRVSISADTANNQFALRLTSVTAADTAVYYCARHPSRGSNYDSVTGDTYYYYYGIDVWGPGKAVAVSS
VL: DIQMTQSTPSLSASLGDKITISCQASRDIDTSLNWYQQKPGKSPKLLVVAASTLETGVPSRFSASGSGTHFTLTINDLQRDDVATYFCQQYAALPLTFGGGTRVDLR
B17: c29288 (antibody, V domains shown)
VH: QVRLQESGPGLVRPSETLSLTCLVSGDSITSNYWSWIRQPPGKTLEWIGFMYNSGDANYNPSLQSRVSISADTAKNHFALRLTSVTAADTAVYYCARHPSRGSDYESATGDTYYYYYGMDVWGPGIAVAVSS
VL: DIQMTQSTPSLSASLGDKITISCQASRDIDTSLNWYQQKPGKSPKLLIVAASTLETGVPSRFSASGSGTHFTLTINDLHRDDVATYFCQQYMGLPLTFGGGTRVDLR
B18: c1369 (antibody, V domains shown)
VH: QVRLHQWGEGLLRPSDTLSLTCSLSGNVFYRTFFNWIRQSPGKGLEWIAEVSFAGDWTYNPSLKSRVTTYVDGFKYHVSLQMRSMTAADAGVYYCASGGGSFDVDSWGQGIRVTVSS
VL: EIVLTQTPLSSSVTLGQSASISCRSSQSLQHSNGNTYLSWFQQRPGQPPRLLIRKISNRFSEVPDRFTGSGSGTDFTLTIDRVEPEDVGTYYCVQATQFPWTFGQGTTVDIT
B19: c27236 (antibody, V domains shown)
VH: QVQLVQSGAEVKTPGSSVKVACKTSGGPFSSYAISWIRQAPGEGLEWMGGVTPLFGTARYTQKFQGRLTITTDESTSTTYMSLSGLKSEDTAVYYCASLAYIGSGPKWGQGALVTVSS
VL: DIQMTQSPSAMSASVGERVTITCRASQGISSDLAWFQQKPGKVPERLIYAASNLQSGVPSRFSGSGSGTQFTLTISGLQAEDSATYYCLQHDSYPWTFGQGTKVEIK
B20: c5221 (antibody, V domains shown)
VH: QPQMKQSGIEVKKPGAAVKVSCKPSGYWFIACGISWVRQAPGRGLEWLGWVYPYNGKVNLARKFWGRVTLTADRSTETAYMELKSLTSDDTAIYYCARDSEQYDAAMPNYFTEYGMDVWGQGTTVIVSS
VL: EIVLTQSPDTLSLSPGETAALSCRASQSITGKGLAWYKQRPGQPPSLFVFGVSKRAAGVPDRVSGSGSGTDYILTIRRLEPEDSAVYFCQQYQDPARTFGQGTKLEIK
B21: c5337 (antibody, V domains shown)
VH: QVRLQESAPRLVKPSETLSLTCTVSGGSIFPFFYSWIRQAPGGGLQWIGRLYSNTGSSKSNPSLHLRVALSVDRSRNQVGLKMTSMTAADTGVYYCVRDIMRDFDDFNGAGGVYGGVDIWGRGTAVTVSS
VL: QFVLTQPPSVSESPGKTISISCTRSSGTFARNSVHWYLQRPGSVPKTVIYDGNRRPSGIPGRFSASIDVSSGSASLTISGLTPEDEAEYYCQSYDGGNHVVFGGGTKVTVL

Molecular target: HIV-1 NL4-3 Env on infected cells (HIV-1 group M subtype B, NL4-3 (pNL4-3 …, strain))

Q: Does B1 bind?
A: binds

Q: Does B2 bind?
A: binds

Q: Does B3 bind?
A: binds

Q: Does B4 bind?
A: binds

Q: Does B5 bind?
A: binds

Q: Does B6 bind?
A: binds

Q: Does B7 bind?
A: binds

Q: Does B8 bind?
A: binds

Q: Does B9 bind?
A: binds

Q: Does B10 bind?
A: binds

Q: Does B11 bind?
A: binds

Q: Does B12 bind?
A: binds

Q: Does B13 bind?
A: binds

Q: Does B14 bind?
A: binds

Q: Does B15 bind?
A: binds

Q: Does B16 bind?
A: binds

Q: Does B17 bind?
A: binds

Q: Does B18 bind?
A: binds

Q: Does B19 bind?
A: binds

Q: Does B20 bind?
A: binds

Q: Does B21 bind?
A: binds
